Laboratory results from patent US20230272413A1 (UNITED STATES OF AMERICA AS REPRESENTED BY THE SECRETARY OF …, published 2023).

Molecular target: the molecule itself
Assay: SEC-MALS, homodimer

B1: PLRV ^NRTD (other)
chain: KHERFIAYVGIPMLTIQARENDDQIILGSLGSQRMKYIEDENQNYTNISSEYYSQSSMQAVPMYYFNVPKGQWSVDISCEGYQPTSSTSDPHRGRSDGMIAYSNADSDYWNVGEADGVKISKLRNDNTYRQGHPELEINSCHFREGQLLERDATISFHVEAPTDGRFFLVGPAIQKTAKYNYTISYGDWTDRDMELGLITVVLDEHLEGTGSANRVRRPPREGHIYMAS
notes: Selenomethionine-labeled protein was used for phasing; also called Potato leafroll virus ^NRTD; WT PLRV ^NRTD
binding result: binds
